Assay [1] concerns the target T1, human amylin receptor (amylin 3(a) receptor: human calcitonin receptor with RAMP-3) (human, UniProt P30988 25-474; O60896 24-148, limits assumed).
T1 construct: whole, on cells; Assay V: membranes of the Amylin 3(a)/CRE-luc BHK cells on SPA beads; also called hAmylin-R
T1 sequence (looked up) 1: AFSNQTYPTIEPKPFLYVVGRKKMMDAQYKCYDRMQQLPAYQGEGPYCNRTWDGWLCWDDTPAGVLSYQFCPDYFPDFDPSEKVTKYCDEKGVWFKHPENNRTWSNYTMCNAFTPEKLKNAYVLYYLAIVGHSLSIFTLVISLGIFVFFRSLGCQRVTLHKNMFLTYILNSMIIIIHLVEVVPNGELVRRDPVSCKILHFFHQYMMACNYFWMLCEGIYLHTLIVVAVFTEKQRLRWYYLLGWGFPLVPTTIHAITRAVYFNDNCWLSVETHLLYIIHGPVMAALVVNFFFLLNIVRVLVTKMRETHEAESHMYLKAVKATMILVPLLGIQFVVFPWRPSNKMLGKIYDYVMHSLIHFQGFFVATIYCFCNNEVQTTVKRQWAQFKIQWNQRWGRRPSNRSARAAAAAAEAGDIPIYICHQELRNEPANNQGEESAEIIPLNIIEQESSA
T1 sequence (looked up) 2: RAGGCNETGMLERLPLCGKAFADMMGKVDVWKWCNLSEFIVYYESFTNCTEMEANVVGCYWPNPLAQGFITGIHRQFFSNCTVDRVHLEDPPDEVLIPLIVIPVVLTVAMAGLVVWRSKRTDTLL
Nature of the assay: SPA competition vs 125I-rat amylin, membranes with human CTR + RAMP-3 (Assay V). As to the method:
The binding assay was performed using scintillation proximity assay (SPA) beads (RPNQ0001) from PerkinElmer and cell membranes from the Amylin 3(a)/CRE-luc cells (as described in Assay (II)) were used. Membranes were prepared in the following way; the cells were rinsed with PBS and incubated with Versene for approximately 5 min before harvesting. The cells were flushed with PBS and the cell-suspension was centrifuged for 5 min at 1000 rpm. […] The resulting pellet was resuspended in buffer 2 and protein concentration was tested (BCA protein Assay, Pierce). The homogenate was kept cold during the whole procedure. The membranes were kept at −80° C. until use. The assay was performed in a 384 well Optiplate (PerkinElmer) in a total volume of 40 ul. Membranes were mixed with SPA beads. Final concentration of membranes 35 ng/μL final and SPA beads was 0.05 mg/well. Test-compounds were dissolved in DMSO and further diluted in assay buffer (50 mM Hepes, pH 7.4, 1 mM CaCl2, 5 mM MgCl2, 0.1% OA and 0.02% Tween20). […] Samples were analyzed on TopCounter™ (Packard). The IC₅₀ was calculated using (one site binding competition analysis) GraphPad Prism5 as a measure of receptor affinity.

Assay [2] concerns the target T2, human calcitonin receptor (human, UniProt P30988 25-474).
T2 construct: whole, on cells; Assay VII: membranes on SPA beads; also called hCT-R; hCTR
T2 sequence (looked up): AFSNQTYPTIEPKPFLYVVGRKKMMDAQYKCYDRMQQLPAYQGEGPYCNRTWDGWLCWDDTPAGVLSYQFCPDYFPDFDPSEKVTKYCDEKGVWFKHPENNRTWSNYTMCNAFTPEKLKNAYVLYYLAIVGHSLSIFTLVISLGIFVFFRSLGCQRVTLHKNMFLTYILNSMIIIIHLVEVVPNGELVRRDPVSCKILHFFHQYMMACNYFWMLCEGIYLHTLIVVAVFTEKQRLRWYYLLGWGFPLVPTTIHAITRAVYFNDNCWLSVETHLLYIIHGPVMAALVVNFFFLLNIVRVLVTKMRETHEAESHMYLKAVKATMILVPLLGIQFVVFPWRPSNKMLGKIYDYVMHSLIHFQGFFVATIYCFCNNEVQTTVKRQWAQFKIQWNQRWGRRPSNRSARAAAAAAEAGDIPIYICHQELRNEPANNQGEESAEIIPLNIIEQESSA
In words: SPA competition vs 125I-calcitonin, membranes with human CTR (Assay VII). As to the method: The binding assay was performed using scintillation proximity assay (SPA) beads (RPNQ0001) from PerkinElmer® and cell membranes prepared from a BHK tk'ts 13 cell line was stably transfected with the human calcitonin receptor and a CRE-responsive luciferase reporter gene. Membranes were prepared in the following way; the cells were rinsed with PBS and incubated with Versene for approximately 5 min before harvesting. The cells were flushed with PBS and the cell-suspension was centrifuged for 5 min at 1000 rpm.
EDTA (pH 7.4, buffer 2). The resulting pellet was resuspended in buffer 2 and protein concentration was tested (BCA protein Assay, Pierce). The homogenate was kept cold during the whole procedure. The membranes were kept at −80° C. until use. Assay was performed in a 384 well Optiplate (PerkinElmer®) in a total volume of 40 ul. Membranes were mixed with SPA beads. Final concentration of membranes 35 ng/μL final and Final concentration of SPA beads was 0.05 mg/well. Test-compounds were dissolved in DMSO and further diluted in assay buffer (50 mM Hepes, pH 7.4, 1 mM CaCl2, 5 mM MgCl2, 0.1% OA and 0.02% Tween20). […] Samples were analyzed on TopCounter™ (Packard). The IC₅₀ was calculated using (one site binding competition analysis) GraphPad Prism5 as a measure of receptor affinity.

Numbered stars: 1 amine (or outer) side, 2 acyl side, 3 side chain; on linkers, the order of the positions; unused ones are H or OH. Side chains are listed from the residue outwards. Ends that are not written are not given here. * marks the point of attachment. C20 diacid = O=C(O)CCCCCCCCCCCCCCCCCCC(=O)*; γGlu = O=C(O)[C@H](CCC(=O)[*:2])N[*:1]

One may read the IC50 as the concentration needed to halve the response being measured.

B1: [N-terminal(C20 diacid-gGlu), des1, 30S, 31G, 33H]mimylin (peptide)
peptide: {C20 diacid-γGlu}-ASELSTAALGRLSAELHELATLPRTETGSGSH-NH2
SMILES: CC(C)C[C@H](NC(=O)[C@H](C)NC(=O)[C@H](C)NC(=O)[C@@H](NC(=O)[C@H](CO)NC(=O)[C@H](CC(C)C)NC(=O)[C@H](CCC(=O)O)NC(=O)[C@H](CO)NC(=O)[C@H](C)NC(=O)CC[C@H](NC(=O)CCCCCCCCCCCCCCCCCCC(=O)O)C(=O)O)[C@@H](C)O)C(=O)NCC(=O)N[C@@H](CCCNC(=N)N)C(=O)N[C@@H](CC(C)C)C(=O)N[C@@H](CO)C(=O)N[C@@H](C)C(=O)N[C@@H](CCC(=O)O)C(=O)N[C@@H](CC(C)C)C(=O)N[C@@H](Cc1c[nH]cn1)C(=O)N[C@@H](CCC(=O)O)C(=O)N[C@@H](CC(C)C)C(=O)N[C@@H](C)C(=O)N[C@H](C(=O)N[C@@H](CC(C)C)C(=O)N1CCC[C@H]1C(=O)N[C@@H](CCCNC(=N)N)C(=O)N[C@H](C(=O)N[C@@H](CCC(=O)O)C(=O)N[C@H](C(=O)NCC(=O)N[C@@H](CO)C(=O)NCC(=O)N[C@@H](CO)C(=O)N[C@@H](Cc1c[nH]cn1)C(N)=O)[C@@H](C)O)[C@@H](C)O)[C@@H](C)O
notes: mimylin derivative; des1 = residue 1 deleted; also called Ex. #60; 60
Take B1: the IC50 in assay [1] came out at 0.057 nM; in assay [2], 0.034 nM.

B2: [N-terminal(acetyl), des1, 4K(C20 diacid-gGlu), 30S, 31G]mimylin (peptide)
peptide: Ac-ASK([γGlu-C20 diacid])LSTAALGRLSAELHELATLPRTETGSGSP-NH2
notes: mimylin derivative; des1 = residue 1 deleted; also called Ex. #68; 68
Take B2: the IC50 is 0.05 nM in assay [1] and 0.01 nM in assay [2].

B3: [des1, 19K(C20 diacid-gGlu), 30S, 31G]mimylin (peptide)
peptide: ASELSTAALGRLSAELHK([γGlu-C20 diacid])LATLPRTETGSGSP-NH2
modifications: N-terminus assumed
SMILES: CC(C)C[C@H](NC(=O)[C@H](C)NC(=O)[C@H](C)NC(=O)[C@@H](NC(=O)[C@H](CO)NC(=O)[C@H](CC(C)C)NC(=O)[C@H](CCC(=O)O)NC(=O)[C@H](CO)NC(=O)[C@H](C)N)[C@@H](C)O)C(=O)NCC(=O)N[C@@H](CCCNC(=N)N)C(=O)N[C@@H](CC(C)C)C(=O)N[C@@H](CO)C(=O)N[C@@H](C)C(=O)N[C@@H](CCC(=O)O)C(=O)N[C@@H](CC(C)C)C(=O)N[C@@H](Cc1c[nH]cn1)C(=O)N[C@@H](CCCCNC(=O)CC[C@H](NC(=O)CCCCCCCCCCCCCCCCCCC(=O)O)C(=O)O)C(=O)N[C@@H](CC(C)C)C(=O)N[C@@H](C)C(=O)N[C@H](C(=O)N[C@@H](CC(C)C)C(=O)N1CCC[C@H]1C(=O)N[C@@H](CCCNC(=N)N)C(=O)N[C@H](C(=O)N[C@@H](CCC(=O)O)C(=O)N[C@H](C(=O)NCC(=O)N[C@@H](CO)C(=O)NCC(=O)N[C@@H](CO)C(=O)N1CCC[C@H]1C(N)=O)[C@@H](C)O)[C@@H](C)O)[C@@H](C)O
notes: mimylin derivative; des1 = residue 1 deleted; also called Ex. #54; 54
Consider B3, for which the IC50 amounted to 0.442 nM in assay [1] and 0.085 nM in assay [2].

B4: [N-terminal(acetyl), des1, 19K(C20 diacid-gGlu), 30S, 31G]mimylin (peptide)
peptide: Ac-ASELSTAALGRLSAELHK([γGlu-C20 diacid])LATLPRTETGSGSP-NH2
notes: mimylin derivative; des1 = residue 1 deleted; also called Ex. #70; 70
For the molecule B4, the IC50 amounted to 0.206 nM in assay [1] and 0.077 nM in assay [2].

B5: [N-terminal(C20 diacid-gGlu), des1, 30S, 31G, 33Y]mimylin (peptide)
peptide: {C20 diacid-γGlu}-ASELSTAALGRLSAELHELATLPRTETGSGSY-NH2
SMILES: CC(C)C[C@H](NC(=O)[C@H](C)NC(=O)[C@H](C)NC(=O)[C@@H](NC(=O)[C@H](CO)NC(=O)[C@H](CC(C)C)NC(=O)[C@H](CCC(=O)O)NC(=O)[C@H](CO)NC(=O)[C@H](C)NC(=O)CC[C@H](NC(=O)CCCCCCCCCCCCCCCCCCC(=O)O)C(=O)O)[C@@H](C)O)C(=O)NCC(=O)N[C@@H](CCCNC(=N)N)C(=O)N[C@@H](CC(C)C)C(=O)N[C@@H](CO)C(=O)N[C@@H](C)C(=O)N[C@@H](CCC(=O)O)C(=O)N[C@@H](CC(C)C)C(=O)N[C@@H](Cc1c[nH]cn1)C(=O)N[C@@H](CCC(=O)O)C(=O)N[C@@H](CC(C)C)C(=O)N[C@@H](C)C(=O)N[C@H](C(=O)N[C@@H](CC(C)C)C(=O)N1CCC[C@H]1C(=O)N[C@@H](CCCNC(=N)N)C(=O)N[C@H](C(=O)N[C@@H](CCC(=O)O)C(=O)N[C@H](C(=O)NCC(=O)N[C@@H](CO)C(=O)NCC(=O)N[C@@H](CO)C(=O)N[C@@H](Cc1ccc(O)cc1)C(N)=O)[C@@H](C)O)[C@@H](C)O)[C@@H](C)O
notes: mimylin derivative; des1 = residue 1 deleted; also called Ex. #59; 59
Take B5: the IC50 is 0.243 nM in assay [1] and 0.113 nM in assay [2].

B6: [N-terminal(acetyl), des1, 16K(C20 diacid-gGlu), 30S, 31G]mimylin (peptide)
peptide: Ac-ASELSTAALGRLSAK([γGlu-C20 diacid])LHELATLPRTETGSGSP-NH2
notes: mimylin derivative; des1 = residue 1 deleted; also called Ex. #69; 69
B6: the figures for the IC50 in assay [1] and in assay [2] were 0.074 nM and 0.046 nM, respectively.

B7: [des1, 4K(C20 diacid-gGlu), 30S, 31G]mimylin (peptide)
peptide: ASK([γGlu-C20 diacid])LSTAALGRLSAELHELATLPRTETGSGSP-NH2
modifications: N-terminus assumed
SMILES: CC(C)C[C@H](NC(=O)[C@H](C)NC(=O)[C@H](C)NC(=O)[C@@H](NC(=O)[C@H](CO)NC(=O)[C@H](CC(C)C)NC(=O)[C@H](CCCCNC(=O)CC[C@H](NC(=O)CCCCCCCCCCCCCCCCCCC(=O)O)C(=O)O)NC(=O)[C@H](CO)NC(=O)[C@H](C)N)[C@@H](C)O)C(=O)NCC(=O)N[C@@H](CCCNC(=N)N)C(=O)N[C@@H](CC(C)C)C(=O)N[C@@H](CO)C(=O)N[C@@H](C)C(=O)N[C@@H](CCC(=O)O)C(=O)N[C@@H](CC(C)C)C(=O)N[C@@H](Cc1c[nH]cn1)C(=O)N[C@@H](CCC(=O)O)C(=O)N[C@@H](CC(C)C)C(=O)N[C@@H](C)C(=O)N[C@H](C(=O)N[C@@H](CC(C)C)C(=O)N1CCC[C@H]1C(=O)N[C@@H](CCCNC(=N)N)C(=O)N[C@H](C(=O)N[C@@H](CCC(=O)O)C(=O)N[C@H](C(=O)NCC(=O)N[C@@H](CO)C(=O)NCC(=O)N[C@@H](CO)C(=O)N1CCC[C@H]1C(N)=O)[C@@H](C)O)[C@@H](C)O)[C@@H](C)O
notes: mimylin derivative; des1 = residue 1 deleted; also called Ex. #52; 52
Consider B7, for which the IC50 in assay [1] stood at 0.724 nM; in assay [2] it was 0.136 nM.

B8: [des1, 16K(C20 diacid-gGlu), 30S, 31G]mimylin (peptide)
peptide: ASELSTAALGRLSAK([γGlu-C20 diacid])LHELATLPRTETGSGSP-NH2
modifications: N-terminus assumed
SMILES: CC(C)C[C@H](NC(=O)[C@H](C)NC(=O)[C@H](C)NC(=O)[C@@H](NC(=O)[C@H](CO)NC(=O)[C@H](CC(C)C)NC(=O)[C@H](CCC(=O)O)NC(=O)[C@H](CO)NC(=O)[C@H](C)N)[C@@H](C)O)C(=O)NCC(=O)N[C@@H](CCCNC(=N)N)C(=O)N[C@@H](CC(C)C)C(=O)N[C@@H](CO)C(=O)N[C@@H](C)C(=O)N[C@@H](CCCCNC(=O)CC[C@H](NC(=O)CCCCCCCCCCCCCCCCCCC(=O)O)C(=O)O)C(=O)N[C@@H](CC(C)C)C(=O)N[C@@H](Cc1c[nH]cn1)C(=O)N[C@@H](CCC(=O)O)C(=O)N[C@@H](CC(C)C)C(=O)N[C@@H](C)C(=O)N[C@H](C(=O)N[C@@H](CC(C)C)C(=O)N1CCC[C@H]1C(=O)N[C@@H](CCCNC(=N)N)C(=O)N[C@H](C(=O)N[C@@H](CCC(=O)O)C(=O)N[C@H](C(=O)NCC(=O)N[C@@H](CO)C(=O)NCC(=O)N[C@@H](CO)C(=O)N1CCC[C@H]1C(N)=O)[C@@H](C)O)[C@@H](C)O)[C@@H](C)O
notes: mimylin derivative; des1 = residue 1 deleted; also called Ex. #53; 53
Consider B8, for which the IC50 in assay [1] was 0.114 nM; in assay [2], 0.215 nM.

The record behind these values is US20160272683A1 (Novo Nordisk, published 2016).
